Experimental data reported in publication PMC2756588.

T1: Abp1, P15891
T1 sequence (P15891 535-592, looked up): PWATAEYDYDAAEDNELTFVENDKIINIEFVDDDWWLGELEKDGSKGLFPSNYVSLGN

T2: Bbc1, P47068
T2 sequence (P47068 1-78, looked up): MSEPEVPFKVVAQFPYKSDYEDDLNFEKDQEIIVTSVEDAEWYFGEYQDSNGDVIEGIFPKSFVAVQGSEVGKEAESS

T3: Boi1, P38041
T3 sequence (P38041 1-86, looked up): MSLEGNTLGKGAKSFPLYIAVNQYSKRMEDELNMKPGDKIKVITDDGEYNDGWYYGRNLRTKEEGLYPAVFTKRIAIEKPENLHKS

T4: Boi2, P39969
T4 sequence (P39969 32-116, looked up): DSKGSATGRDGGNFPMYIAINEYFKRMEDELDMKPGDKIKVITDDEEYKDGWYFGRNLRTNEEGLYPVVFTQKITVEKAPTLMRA

T5: Bud14, P27637
T5 sequence (P27637 247-328, looked up): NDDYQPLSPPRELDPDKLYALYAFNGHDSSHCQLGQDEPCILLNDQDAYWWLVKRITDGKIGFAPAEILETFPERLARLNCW

T6: Bzz1-1, P38822
T6 sequence (P38822 478-572, looked up): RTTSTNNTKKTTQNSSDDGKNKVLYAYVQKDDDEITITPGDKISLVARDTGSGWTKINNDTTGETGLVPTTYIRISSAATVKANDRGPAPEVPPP

T7: Bzz1-2, P38822
T7 sequence (P38822 568-633, looked up): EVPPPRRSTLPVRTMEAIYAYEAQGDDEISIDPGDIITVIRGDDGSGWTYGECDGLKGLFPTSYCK

T8: Cdc25, P04821
T8 sequence (P04821 50-136, looked up): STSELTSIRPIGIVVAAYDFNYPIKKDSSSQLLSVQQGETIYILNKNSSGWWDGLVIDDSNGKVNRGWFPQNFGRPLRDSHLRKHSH

T9: Cyk3, Q07533
T9 sequence (Q07533 1-83, looked up): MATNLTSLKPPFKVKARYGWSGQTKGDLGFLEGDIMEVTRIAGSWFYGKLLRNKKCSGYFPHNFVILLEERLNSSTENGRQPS

T10: Fus1, P11710
T10 sequence (P11710 432-512, looked up): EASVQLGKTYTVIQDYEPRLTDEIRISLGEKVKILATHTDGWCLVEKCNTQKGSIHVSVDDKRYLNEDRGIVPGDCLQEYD

T11: Hof1, Q05080
T11 sequence (Q05080 590-669, looked up): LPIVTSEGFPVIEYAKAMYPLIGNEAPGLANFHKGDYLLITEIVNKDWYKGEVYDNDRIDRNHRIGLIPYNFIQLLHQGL

T12: Hse1, P38753
T12 sequence (P38753 208-285, looked up): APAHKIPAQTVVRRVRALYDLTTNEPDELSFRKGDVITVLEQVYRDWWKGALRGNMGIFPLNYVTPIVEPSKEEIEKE

T13: Lsb1, P53281
T13 sequence (P53281 45-122, looked up): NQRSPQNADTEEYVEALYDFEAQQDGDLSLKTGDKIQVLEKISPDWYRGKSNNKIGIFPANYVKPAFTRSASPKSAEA

T14: Lsb3, P43603
T14 sequence (P43603 385-451, looked up): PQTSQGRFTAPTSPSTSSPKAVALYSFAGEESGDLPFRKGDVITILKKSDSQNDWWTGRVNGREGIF

T15: Lsb4, P32793
T15 sequence (P32793 402-468, looked up): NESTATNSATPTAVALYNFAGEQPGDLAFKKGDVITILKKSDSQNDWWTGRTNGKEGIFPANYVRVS

T16: Myo5, Q04439
T16 sequence (Q04439 1072-1160, looked up): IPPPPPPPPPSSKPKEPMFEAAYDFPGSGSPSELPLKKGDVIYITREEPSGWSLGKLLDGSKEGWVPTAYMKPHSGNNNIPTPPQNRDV

T17: Nbp2, Q12163
T17 sequence (Q12163 103-180, looked up): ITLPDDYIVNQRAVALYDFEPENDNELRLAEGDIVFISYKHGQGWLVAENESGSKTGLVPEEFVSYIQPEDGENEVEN

T18: Pex13, P80667
T18 sequence (P80667 295-386, looked up): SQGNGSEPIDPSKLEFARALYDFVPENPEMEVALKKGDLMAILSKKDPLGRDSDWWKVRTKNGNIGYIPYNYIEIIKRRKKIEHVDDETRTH

T19: Pin3, Q06449
T19 sequence (Q06449 53-122, looked up): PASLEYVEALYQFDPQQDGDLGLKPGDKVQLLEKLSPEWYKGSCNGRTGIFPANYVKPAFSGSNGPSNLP

T20: Sla1-2, P32790
T20 sequence (P32790 60-140, looked up): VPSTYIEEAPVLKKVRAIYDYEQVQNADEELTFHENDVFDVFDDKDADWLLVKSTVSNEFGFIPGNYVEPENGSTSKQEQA

T21: Sla1-3, P32790
T21 sequence (P32790 344-424, looked up): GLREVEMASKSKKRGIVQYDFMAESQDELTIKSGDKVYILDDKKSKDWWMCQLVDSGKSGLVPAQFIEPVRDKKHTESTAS

B1: unnamed (peptide)
chain: DHPKGPPPPPPPDEK
B2: unnamed (peptide)
chain: TPRLSLPRLPNKHHW
B3: unnamed (peptide)
chain: SRSKPLPLTPNSKYN
B4: unnamed (peptide)
chain: QLMKNLPKIPLLNDI
B5: unnamed (peptide)
chain: VPKEPAPAPPPEPDM
B6: unnamed (peptide)
chain: GDHPKGPPPPPPPDE

Target: T1, Abp1, P15891
Assay: SPOT array
Conditions: median of control spots 935

Binder	SPOT intensity
B1	0
B2	37
B3	109
B4	76
B5	0
B6	0

Target: T2, Bbc1, P47068
Assay: SPOT array
Conditions: median of control spots 796

Binder	SPOT intensity
B1	0
B2	2
B3	5
B4	0
B5	0
B6	1

Target: Bem1-1, P29366
Assay: SPOT array
Conditions: median of control spots 4282

Sequence of Bem1-1, P29366 (P29366 55-141): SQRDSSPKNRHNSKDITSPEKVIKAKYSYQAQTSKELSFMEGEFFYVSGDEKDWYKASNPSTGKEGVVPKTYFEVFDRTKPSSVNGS

Binder	SPOT intensity
B1	8
B2	0
B3	0
B4	5
B5	0
B6	0

Target: Bem1-2, P29366
Assay: SPOT array
Conditions: median of control spots 4347

Sequence of Bem1-2, P29366 (P29366 139-227): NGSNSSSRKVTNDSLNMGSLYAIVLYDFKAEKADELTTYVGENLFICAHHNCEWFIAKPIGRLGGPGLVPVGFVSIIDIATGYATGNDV

Binder	SPOT intensity
B1	0
B2	3
B3	1
B4	0
B5	0
B6	3

Target: T3, Boi1, P38041
Assay: SPOT array
Conditions: median of control spots 1162

Binder	SPOT intensity
B1	0
B2	4
B3	2
B4	1
B5	0
B6	4

Target: T4, Boi2, P39969
Assay: SPOT array
Conditions: median of control spots 1161

Binder	SPOT intensity
B1	0
B2	0
B3	0
B4	1
B5	0
B6	1

Target: T5, Bud14, P27637
Assay: SPOT array
Conditions: median of control spots 956

Binder	SPOT intensity
B1	1
B2	9
B3	5
B4	0
B5	0
B6	1

Target: T6, Bzz1-1, P38822
Assay: SPOT array
Conditions: median of control spots 4446

Binder	SPOT intensity
B1	72
B2	0
B3	2
B4	1
B5	0
B6	1

Target: T7, Bzz1-2, P38822
Assay: SPOT array
Conditions: median of control spots 4538

Binder	SPOT intensity
B1	12
B2	1
B3	4
B4	7
B5	0
B6	0

Target: T8, Cdc25, P04821
Assay: SPOT array
Conditions: median of control spots 969

Binder	SPOT intensity
B1	6
B2	10
B3	2
B4	0
B5	0
B6	3

Target: T9, Cyk3, Q07533
Assay: SPOT array
Conditions: median of control spots 1451

Binder	SPOT intensity
B1	0
B2	0
B3	1
B4	0
B5	1
B6	0

Target: T10, Fus1, P11710
Assay: SPOT array
Conditions: median of control spots 1200

Binder	SPOT intensity
B1	0
B2	0
B3	0
B4	0
B5	1
B6	0

Target: GST
Assay: SPOT array
Conditions: median of control spots 978

Binder	SPOT intensity
B1	0
B2	0
B3	0
B4	1
B5	0
B6	0

Target: T11, Hof1, Q05080
Assay: SPOT array
Conditions: median of control spots 4086

Binder	SPOT intensity
B1	2
B2	1600
B3	0
B4	11
B5	0
B6	0

Target: T12, Hse1, P38753
Assay: SPOT array
Conditions: median of control spots 1727

Binder	SPOT intensity
B1	0
B2	30
B3	1
B4	1
B5	3
B6	0

Target: T13, Lsb1, P53281
Assay: SPOT array
Conditions: median of control spots 388

Binder	SPOT intensity
B1	0
B2	0
B3	0
B4	6
B5	0
B6	0

Target: T14, Lsb3, P43603
Assay: SPOT array
Conditions: median of control spots 406

Binder	SPOT intensity
B1	0
B2	0
B3	0
B4	21
B5	0
B6	0

Target: T15, Lsb4, P32793
Assay: SPOT array
Conditions: median of control spots 397

Binder	SPOT intensity
B1	0
B2	0
B3	2
B4	41
B5	0
B6	0

Target: Myo3, P36006
Assay: SPOT array
Conditions: median of control spots 468

Binder	SPOT intensity
B1	431
B2	0
B3	0
B4	72
B5	149
B6	371

Target: T16, Myo5, Q04439
Assay: SPOT array
Conditions: median of control spots 471

Binder	SPOT intensity
B1	298
B2	0
B3	0
B4	68
B5	93
B6	227

Target: T17, Nbp2, Q12163
Assay: SPOT array
Conditions: median of control spots 357

Binder	SPOT intensity
B1	1
B2	0
B3	0
B4	10
B5	0
B6	0

Target: T18, Pex13, P80667
Assay: SPOT array
Conditions: median of control spots 1341

Binder	SPOT intensity
B1	0
B2	45
B3	21
B4	162
B5	4
B6	0

Target: T19, Pin3, Q06449
Assay: SPOT array
Conditions: median of control spots 2171

Binder	SPOT intensity
B1	6
B2	7
B3	19
B4	78
B5	17
B6	2

Target: Rvs167, P39743
Assay: SPOT array
Conditions: median of control spots 2707

Sequence of Rvs167, P39743 (P39743 419-482): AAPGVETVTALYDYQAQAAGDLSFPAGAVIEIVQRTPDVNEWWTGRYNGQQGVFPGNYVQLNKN

Binder	SPOT intensity
B1	0
B2	2
B3	1
B4	0
B5	0
B6	0

Target: Sho1, P40073
Assay: SPOT array
Conditions: median of control spots 1148

Sequence of Sho1, P40073 (P40073 287-367): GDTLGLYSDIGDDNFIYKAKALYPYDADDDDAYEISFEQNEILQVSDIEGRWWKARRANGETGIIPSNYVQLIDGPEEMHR

Binder	SPOT intensity
B1	0
B2	35
B3	1030
B4	861
B5	0
B6	0

Target: T20, Sla1-2, P32790
Assay: SPOT array
Conditions: median of control spots 712

Binder	SPOT intensity
B1	0
B2	0
B3	3
B4	5
B5	0
B6	0

Target: T21, Sla1-3, P32790
Assay: SPOT array
Conditions: median of control spots 5475

Binder	SPOT intensity
B1	12
B2	0
B3	7
B4	2
B5	0
B6	2
